This is an account of results in paper PMC11387744.

The test has as its target KDM2B^F-box-LRRs/SKP1 dimer (UniProt Q8NHM5). As to the kind of experiment: ITC. In general terms: ITC needs no label: the signal is the heat of the interaction.

Chain of KDM2B^F-box-LRRs/SKP1 dimer (Q8NHM5 1059-1336, chain 1 of 2): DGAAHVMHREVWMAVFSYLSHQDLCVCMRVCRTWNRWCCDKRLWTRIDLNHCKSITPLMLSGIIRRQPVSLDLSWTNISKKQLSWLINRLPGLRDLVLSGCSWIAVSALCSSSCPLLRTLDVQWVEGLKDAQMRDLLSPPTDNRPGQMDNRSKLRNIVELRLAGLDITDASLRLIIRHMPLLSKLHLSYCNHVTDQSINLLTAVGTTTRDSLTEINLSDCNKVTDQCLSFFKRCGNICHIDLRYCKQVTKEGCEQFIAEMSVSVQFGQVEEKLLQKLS
Chain of KDM2B^F-box-LRRs/SKP1 dimer (P63208 2-163, chain 2 of 2, further chain): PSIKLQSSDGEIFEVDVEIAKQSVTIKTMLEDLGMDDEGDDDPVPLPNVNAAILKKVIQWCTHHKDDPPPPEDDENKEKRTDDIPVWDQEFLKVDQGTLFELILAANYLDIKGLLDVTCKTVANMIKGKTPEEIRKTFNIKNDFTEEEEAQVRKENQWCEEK

Turning to “BCOR^N1607 (D/E on Poly-D/E^2nd (1607–1611) mutated to Ala)/PCGF1^RAWUL (from UniProt Q6W2J9 1607-1755; Q9BSM1 150-255) (complex)”, the fold reduction of the affinity against the wild-type pair is more than 2.5 fold.
On to “BCOR^N1607 (D/E on Poly-D/E^3rd (1624–1631) mutated to Ala)/PCGF1^RAWUL (from UniProt Q6W2J9 1607-1755; Q9BSM1 150-255) (complex)”, for which the fold reduction of the affinity against the wild-type pair is more than 12 fold.
